Test results reported in PMC5101480 (Scientific Reports, 2016).
“Also recorded” adds a separate entry of the source.

Target: T1, TPR domain of SGTA (SGTA_TPR) (Homo sapiens, UniProt O43765)
T1 construct: thioredoxin A (TxA) fusion (N, cleaved yes); hexahistidine tag (N, cleaved yes); made in house; host or cells: E. coli BL21(DE3) Rosetta
Test: Solution NMR CSP titration of unlabelled ligand into 15N-labelled SGTA_TPR
Format: binding
Details: pH 6.0, 25 °C
Protocol: In order to understand molecular details underlying the interaction between SGTA and Rpn13, solution NMR studies were carried out on excised domains of SGTA and Rpn13 guided by earlier mapping studies. Reciprocal chemical shift perturbation (CSP) experiments were performed by titrating unlabelled Rpn13 C-terminal domain (residues 260–407; hereafter described as Rpn13_260-407) into ^15N-labelled TPR domain of SGTA (residues 84–211; hereafter referred to as SGTA_TPR) and vice versa. Assignments of backbone amide resonances were obtained from the BMRB (accession numbers 5709 and 17286, for SGTA_TPR and Rpn13_260-407, respectively). The ^1H-^15N HSQC spectra of both SGTA_TPR and Rpn13_260-407 show binding in a fast exchange regimen (Figs 1A and 2A). […] Binding was further confirmed by size-exclusion chromatography (SEC) and isothermal titration calorimetry (ITC) (Fig. 1C,D). […] ITC experiments yield a dissociation constant of 16.1 ± 1.4 μM in keeping with the value obtained from NMR.
Protein samples at concentrations between 300 μM and 1 mM were prepared in 10% D2O (Sigma Aldrich), 10 mM potassium phosphate pH 6.0, 100 mM NaCl and 250 μM TCEP buffer (with 10 μM DSS for proton chemical shift referencing). All NMR experiments were acquired in 5 mm NMR tubes at 25 °C on 500 MHz and 700 MHz Bruker Avance spectrometers equipped with cryoprobes and operated by the TopSpin 3.1 software package. All NMR spectra were processed with TopSpin and analysed with CcpNMR Analysis[35]. Proteins used for NMR titrations were dialysed overnight against the same buffer (10 mM potassium phosphate pH 6.0, 100 mM NaCl and 250 μM TCEP) and mixed in different molar ratios, with the concentration of the labelled protein maintained constant. ^1H-^15N HSQC experiments were recorded for each titration point at 25 °C. Chemical shift perturbation (CSP) values were calculated for each amide signal using the following formula: […]
where Δδ1H and Δδ15N are the chemical shift differences for the same amide in its free and bound state (δfree−δbound) and for proton and nitrogen chemical shift values respectively. […]

T1 sequence (O43765 84-211): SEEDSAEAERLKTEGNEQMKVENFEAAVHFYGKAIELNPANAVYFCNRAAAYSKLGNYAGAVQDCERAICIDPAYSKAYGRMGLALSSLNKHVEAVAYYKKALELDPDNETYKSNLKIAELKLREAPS

effect on SGTA_TPR helix-7 residues 203–209 amide signals (3-fold molar excess of unlabelled ligand): perturbed
B1: Rpn13_260-407: Rpn13 C-terminal domain (residues 260–407), human, expressed in E. coli (protein)
chain: QPIQLSDLQSILATMNVPAGPAGGQQVDLASVLTPEIMAPILANADVQERLLPYLPSGESLPQTADEIQNTLTSPQFQQALGMFSAALASGQLGPLMCQFGLPAEAVEAANKGDVEAFAKAMQNNAKPEQKEGDTKDKKDEEEDMSLD
modifications: left off: thioredoxin A (TxA), N-terminal, cleaved | His6, N-terminal, cleaved
notes: Rpn13 C-terminal domain (residues 260–407), human, expressed in E. coli
CSP of SGTA_TPR backbone amide signals, result in words (unlabelled ligand into 15N-labelled SGTA_TPR, Rpn13_260-407 up to 8 equivalents, Rpn13_260-402 up to 6-fold molar excess): Widespread perturbation of backbone amide signals; also recorded: cannot be fitted to a meaningful binding isotherm
